In publication PMC6594998, “Inhibition of CRISPR-Cas9 ribonucleoprotein complex assembly by anti-CRISPR AcrIIC2”:

Assays:
Nme1Cas9 [1] = molecular target: T1, Nme1Cas9 (Neisseria meningitidis, UniProt C9X1G5 1-1082); assay: filter binding; no AcrIIC2Nme; Filter binding: 20 mM Tris pH 7.5, 100 mM KCl, 5 mM MgCl2, 1 mM DTT, 5% glycerol, 0.01% Igepal, 10 ug/mL yeast tRNA, 10 ug/mL BSA, 37 C, 30 min; ITC: 300 mM NaCl, 20 mM Tris pH 7.5, 20 C; gel filtration: 300 mM NaCl, 20 mM Tris pH 7.5; pull-down: 50 mM Tris pH 7.5, 200 mM NaCl, 5% glycerol, 20 mM imidazole; settings: protein: recombinant; label: radiolabeled; hairpin
T1 sequence: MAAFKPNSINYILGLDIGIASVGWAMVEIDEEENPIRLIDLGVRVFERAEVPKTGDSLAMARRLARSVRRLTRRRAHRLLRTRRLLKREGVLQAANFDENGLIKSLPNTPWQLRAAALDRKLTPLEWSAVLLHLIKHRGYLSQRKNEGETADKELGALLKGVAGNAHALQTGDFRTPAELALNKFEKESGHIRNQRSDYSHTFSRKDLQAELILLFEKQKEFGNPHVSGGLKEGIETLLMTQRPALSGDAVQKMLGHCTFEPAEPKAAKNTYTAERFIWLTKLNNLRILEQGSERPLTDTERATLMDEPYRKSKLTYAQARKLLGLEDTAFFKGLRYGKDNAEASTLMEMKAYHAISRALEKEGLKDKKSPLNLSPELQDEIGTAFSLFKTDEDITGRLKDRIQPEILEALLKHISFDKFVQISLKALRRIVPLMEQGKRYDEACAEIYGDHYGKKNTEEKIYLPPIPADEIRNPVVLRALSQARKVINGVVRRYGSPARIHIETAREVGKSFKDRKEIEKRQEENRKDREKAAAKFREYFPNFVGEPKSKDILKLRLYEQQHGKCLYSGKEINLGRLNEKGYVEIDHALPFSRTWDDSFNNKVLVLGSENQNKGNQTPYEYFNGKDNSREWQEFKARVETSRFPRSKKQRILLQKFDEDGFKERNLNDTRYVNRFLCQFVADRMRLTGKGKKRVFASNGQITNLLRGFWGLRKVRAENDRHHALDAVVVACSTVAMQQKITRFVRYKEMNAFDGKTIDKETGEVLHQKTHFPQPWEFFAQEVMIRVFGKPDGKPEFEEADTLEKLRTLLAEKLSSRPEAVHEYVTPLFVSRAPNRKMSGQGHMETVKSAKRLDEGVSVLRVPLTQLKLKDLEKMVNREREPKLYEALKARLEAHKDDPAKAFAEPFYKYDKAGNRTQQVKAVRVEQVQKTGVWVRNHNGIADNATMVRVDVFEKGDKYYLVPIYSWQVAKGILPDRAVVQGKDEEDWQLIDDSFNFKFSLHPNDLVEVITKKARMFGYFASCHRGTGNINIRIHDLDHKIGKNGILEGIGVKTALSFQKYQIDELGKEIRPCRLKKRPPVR

Nme1Cas9 [2] = molecular target: T1, Nme1Cas9; assay: filter binding; no AcrIIC2Nme; 5 mM MgCl2; Filter binding: 20 mM Tris pH 7.5, 100 mM KCl, 5 mM MgCl2, 1 mM DTT, 5% glycerol, 0.01% Igepal, 10 ug/mL yeast tRNA, 10 ug/mL BSA, 37 C, 30 min; ITC: 300 mM NaCl, 20 mM Tris pH 7.5, 20 C; gel filtration: 300 mM NaCl, 20 mM Tris pH 7.5; pull-down: 50 mM Tris pH 7.5, 200 mM NaCl, 5% glycerol, 20 mM imidazole; settings: protein: recombinant; label: radiolabeled; sgRNA with repeat:anti-repeat hairpin and stem loops 1 and 2

Q: Does GGUUGUAGCUCCCUUUCUCGAAAGAGAACCGUUGCUACAAUAA (structured_RNA) [repeat:anti-repeat (cr:tracr)] bind (Nme1Cas9 [1])?
A: Result: binds

B1: full length sgRNA (filter binding) (structured_RNA)
RNA: GGUCUGUAAGCGGAUGCCAUAUGGUUGUAGCUCCCUUUCUCGAAAGAGAACCGUUGCUACAAUAAGGCCGUCUGAAAAGAUGUGCCGCAACGCUCUGCCCCUUAAAGCUUCUGCUUUAACGGGCUU
Q: With B1 as the binder, how does the Kd (Nme1Cas9 [2]) read?
A: The Kd was 0.24 ± 0.14 nM.
